In the DeepSol protein solubility set:

Test: soluble on expression in E. coli; label from the status in PepcDB or PDB records
In the case of “MKSARKNKNIIIDQNEFGILSLIKEGLLGTCTHLMNEKEVNEIIKSGKFKGESFPYPLSFAPKNAEEALNDIKSGDRIDLMLDEKVVGHIDFKSQFKNNKNFSDIFSPNTCSLEDMGTTCISGKIEIYNSQIEKIKENFQQIKNNLNAQKITAIVSSFDPLHRAHERMFRWTIDKADLVVIFLVESFDVNGFEFELKEAYLKKFIQNYLPPDRIFIFPLKNINIFHAHLNPGLESIIAKSLGCTKLVVGQNHTGLGMFYDDNQPKTILDDFSKDYGIEVIVLPEFVFCDQCRMIVSTRSCPHGCHHHLHYNSQSLKDLLRAGIIPPAIFIRKEVSSVILTSLFPNRLKNMQKIYNELFPTDGILEYKNDEEFYQKLLEIHQMSYMV”, the “soluble on expression in E. coli” value is reported as “not soluble”.
In the case of “MSTTHNSLPASSDKHHDGHGEASLYHDSHGHAWSGNPNYTLTQLIPELRINLGSSLDIGSGEGADAAWLASLGWKAVGLEPSGVAVERSRELSSNATFIQGKVPQDLDRCGGPFDLVTGFYIPIAGEDAWRAIARQVADGGYLIYVHHNLDELRAKGHPLLGRDDLLMPFDAADLAPSGAWEIVVHETRHREIVGGHGHHHHLDDVLVLKRRKK”, the “soluble on expression in E. coli” value is reported as “not soluble”.
With “MSLSHQQKVYIPKEARTNQYITAEIKVTDELLNQYPDYHSCYQTLSRIIFNLAEQHDLRNVHVITNDKLPVVRYHTEAYCFQTAEQILFFYNPAYHEAQNLFTADNYRARKLRIVFLATGDEIRSNSANFHTRVQEFLNELMPKLPIKDLKVKIRDHQHLSYDLFAKSKGNKETYGYKLRAIAPRYKARKCELPENVSSLTYVTVSLPLSRKLKQGLLPESATDFSPLYQHLEDNFLKAAANKQLTRLAMIANGLTPLVRNSKFEKLDSKAEVQMIGFDPNATEQQVIRRWDADNLVEAAHFTIVAGAKDCDDAGYGRFMNNVEAALKSFAAEIGLDPEREDLVTRFHQHISYQL” the “soluble on expression in E. coli” value was “soluble”.
In the case of “MARKEAKMLYIFDLGNVIVDIDFNRVLGAWSDLTRIPLASLKKSFHMGEAFHQHERGEISDEAFAEALCHEMALPLSYEQFSHGWQAVFVALRPEVIAIMHKLREQGHRVVVLSNTNRLHTTFWPEEYPEIRDAADHIYLSQDLGMRKPEARIYQHVLQAEGFSPSDTVFFDDNADNIEGANQLGITSILVKDKTTIPDYFAKVLC”, the “soluble on expression in E. coli” value is reported as “soluble”.
For “MRLFKRYTPSMIAKHISRLFKGRIYIYGVGRFEFDNGKLILPEKAEQRHFRAVKEINQEIMKLRCAYALEHHHHHH”, the “soluble on expression in E. coli” value was “not soluble”.
In the case of “MGTFTATYFLKNAFWDKRGLWTATLAVAYFARCWESAGYNKAEMMKGHSKMYADRLKQLPAHTDAWKY”, the “soluble on expression in E. coli” value is reported as “not soluble”.
With “MATSRFQAFLNSPIGPKTTHFWGPIANWGFVAAGLVDMQKPPEMISGNMSSAMCVYSALFMRFAWMVQPRNYLLLACHASNETVQLYQLSRWARAQGYLSSKKEEEKPSQ” the “soluble on expression in E. coli” value was “not soluble”.
With “MKHVKKEKAEKLEKERQRHIGKPLLGGPFSLTTHTGERKTDKDYLGQWLLIYFGFTHCPDVCPEELEKMIQVVDEIDSITTLPDLTPLFISIDPERDTKEAIANYVKEFSPKLVGLTGTREEVDQVARAYRVYYSPGPKDEDEDYIVDHTIIMYLIGPDGEFLDYFGQNKRKGEIAASIATHMRPYRKKS” the “soluble on expression in E. coli” value was “soluble”.
In the case of “PKAPVTGYVRFLNERREQIRTRHPDLPFPEITKMLGAEWSKLQPAEKQRYLDEAEKEKQQYLKELWAYQQSEAYKVCTE”, the “soluble on expression in E. coli” value is reported as “soluble”.
For “MMSDRHFQGNRIRLRAPEPEDLEVMFRFENATDVWEMSNTTGPYSRFQLKQYIEQTQNDLFADRQLRLMIENGNRQVVGIVDLCSFDPLHNRAEVGIMVDKSCRRQGIGRNALALLEEHCFRYLGIHQLFAYIAVENLPSRRLFAACGYKESAVLKEWAHTFGGGYTDVLVVQKLNLS”, the “soluble on expression in E. coli” value was “not soluble”.
With “MAHHHHHHMSEGKRATSAAPEAKYNAYAEAADPDRYRVADALLFTCAEHGKACVLCVTAGKNGRSGRTAAVGATLFWLTCPNLNAIIARFEGHRCVQAVSAAMAQQPCLCDWHVQSHDVYASRAKDLLSPAQWCFFESHFLSDEQPSLHKYGNAAVSHASDMKCLHALVAQTLAGVANPVGSVVVNYILLQHKLVCEAADTGNTEQQGVEEKRLLMKATLNSTRLFSDFTTAFVRAASERPREDWHALHNVSFEVPLPEGNMWCKTAVQYMWQVDSQLAALCPDLCARALTVHVALGGPSRRRHKKHRMN” the “soluble on expression in E. coli” value was “not soluble”.
In the case of “ALAETVSDFRLPNGLEVVVIEDHRAPVVTHMVWYRVGAADEPPGHSGIAHFLEHLMFKGTDEMSAGEFSATVEAQGGDDNAFTSWDYTAYFQRVAADRLDLMMKMEADRMRDLQMTEEDVRTERQVVLEERSQRTDSDPGAVFSEQSRAAAYLNHPYGIPIIGWRHEIEQLGREDAFSFYRTYYAPNNAILVVAGDVDPAEVRRMAEEHYGALEPTP”, the “soluble on expression in E. coli” value is reported as “not soluble”.
With “MIFMNMVNRERELQALKKRLSSNDLELIIIYGRRRIGKTFLIINAVNGYDFIYYLATEKNNLRKFKELTESKYEDIKYVKEDWEAIFHYLRDKIIIIDEFPYMIKEDESILSTFQKIVDETLKGSKTKLILLGSSISMMEDAISYKSPLYGRRTASIELKELKFKDLKGFNFSLIDAIHVYGFAGGVPFYLTKAKTPFLKWINAELKEVDSFIKDEIDFMLRYEFSEIGTYKEILHAISSGKNTLGEIKDFVRISGDVSSYLNKLEKIGIIGKEFPYKMKKGARYYIKDNFTLFWFTFIYPNLSLIEEGIYEIKEDEYNVYLGRIFEKIAREYVEDVYKVKVERLWFKDVEIDIYGDGIAGECKWSEGINGEKVLYELKRKVEDLGLDVKKYIIFAKSFSKTNEEAEFIDLKKLEQWYRTLEHHHHHH” the “soluble on expression in E. coli” value was “soluble”.
In the case of “MGRVYYINSHGTLSRHENTLRFENAEVKKDIPVEDVEEIFVFAELSLNTKLLNFLASKGIPLHFFNYYGYYTGTFYPRESSVSGHLLIKQVEHYLDAQKRLYLAKSFVIGSILNLEYVYKISADTYLNKVKETNSIPELMSVEAEFRKLCYKKLEEVTGWELEKRTKRPPQNPLNALISFGNSLTYAKVLGEIYKTQLNPTVSYLHEPSTKRFSLSLDVAEVFKPIFVDNLIIRLIQENKIDKTHFSTELNMTFLNEIGRKVFLKAFNELLETTIFYPKLNRKVSHRTLIKLELYKLIKHLLEEEVYLPLNYGGLK”, the “soluble on expression in E. coli” value is reported as “soluble”.
In the case of “MTTVRIPAGWPATEEEARAVQDELRGRVILDEPGPPPGTGRVTGVDVAYDDERDVVVAAAVVLDAATLDVVAEATAVGEVSFPYVPGLLAFREIPTVLAALDALPCPPGLIVCDGYGVAHPRRFGLASHLGVLTGLPTIGVAKNPFTFSYEDPGAPRGSAAPLLAGADEVGRALRTQSGVKPVFVSVGHRVDLDHACAHTLALTPKYRIPETTRRADSLCRRALKEATALEHHHHHH”, the “soluble on expression in E. coli” value is reported as “soluble”.
In the case of “MSLSKFTEMMKNRRSIYALGENLPISKEEVTALVKEVVRESPTAFNSQTQRVVFLFGDAHKKLWAMTEDALKPLTPAEAFPNTQAKLQGFAAGAGTILFFEDTDIVKNLQDSFPLYADNFPVWSEQATGLTQANVWTALAQENIGANLQHYNPVIDEAVAAEWSIPANWNLRAQMVIGSIEAPAGEKEYMEDSARFKEFNEGGSHHHHHH”, the “soluble on expression in E. coli” value is reported as “soluble”.
For “MAEAPPVSGTFKFNTDAAEFIPQERKTSGLNCGTQRRLDSSRIGRRNYSSSPPCHLPRHIPYEDISAVHQHSYASGSKPKSPQGFFQSSNKSLKNHGLQNQPWQKARNEKHQNRNKKAQGLSEQTSDTSSLESVARSESGTNPREHSPSESEKEVVIADPRGAKPKKAAQLTYNYGRGPKAKGRLRSEWGNRMSPKSEDENTRPVAISHTDSSDASCRKPVVDPCVCRRNEQRRYPQKRPPWEVEGARPRPGRNPPKQESQRHINAGPKTNMSPIPKDNLRERPTKSACDTGNLAVVSKSSRRVNQEKTAVRRQDPQVLSPFPRGKQNHMLKNVETHTGSLIEQLTTEKYECMVCCELVQVTAPVWSCQSCFHVFHLNCIKKWARSPASHADGQSGWRCPACQNVSAHVPNTYTCFCGKVKNPEWSRNEIPHSCGEVCRKKQPGQDCPHSCNLLCHPGPCPPCPAFTTKTCECGRTRHTVRCGQPVSVHCSNACENILNCGQHHCAELCHGGQCQPCRIILNQVCYCGSTSRDVLCGTDVGKSDGFGDFSCLKICGKDLKCGSHTCSQVCHPQPCQPCPRLPHLVRYCPCGQTPLSQLLEHGSNARKTCMDPVPSCGKVCGKPLACGSSDFIHTCEKLCHEGDCGPCSRTSVISCRCSFRTKELPCTSLKSEDATFMCDKRCNKKRLCGRHKCNEICCVDKEHKCPLICGRKLRCGLHRCEEPCHRGNCQTCWQASFDELTCHCGASVIYPPVPCGTRPPECTQTCARIHECDHPVYHSCHSEEKCPPCTFLTQKWCMGKHEELTIKKLWTFKETLDF”, the “soluble on expression in E. coli” value was “soluble”.
In the case of “MDYWEWKTDGAGLEADEVCITVQHGVTLYDKNEKTQRQNGKLSLTTHHLRYNDEADISTVLQLPLELVRRSGQAPSISSGFGPFSSAKIIVPLPKNAYVKLSFRSGGVDNFYAALVGALKKKTWLQTKTEAAASGRGSSSGASPASTTPVPNSRPPPPVPRGFGIAGVQQASLQSAAMSETLKDIDDVMNKASKLVNNIRRLRERSEAAAAAGSDAGSETAVERTTIESIESTLGLGAIVTRNHSNGSDSRFYRDLAVEMHTWMTHECNSKLFNDMPVVPLIELFALYNKARGGDLVSPLDVLNACTYMAAKMSSSCYDLVTLPSGRKALVNRDDSLLLAKLTTVLGPQLVNSKGSPVQDAWTKTSSQQQQRSGDASSLVRVSTTSDFPKASRDLKSVSDVSLAEKMQVATEVAADILTLLMLKGYLCCMDTGFDCYVYTWNIFVF”, the “soluble on expression in E. coli” value is reported as “not soluble”.
In the case of “MSLIVNFHKVNLKKKYPLQISRGTHSKSQNLFVEIIKDGITGWGESAPGKTEGASNADEVEKWLLKLIDTGIDSLSIYEIFQRSKDLNIPPCVHAAIDIALWDWKAKKAGLPLNNLLGLPTPSTPTSLTIGINPPEIIKERVEMLLSNPQIKALKIKLGSPDGIEYDKSIYSQVLESTKKSNISIRVDANGGWSLDEAKLMMKWLAERKAEYIEQPLVEGEEDKLKYLFKSRPLPIFIDESCRFSEDVARHFEYVDGVNLKLMKCGGITEALRILNVAKSHNLKTMIGCMSESSISISAGASISGIIDYVDLDSHYNLDPDPSEGATMIDGITMNDNKPGHGSKLKIENYAEGHHHHHH”, the “soluble on expression in E. coli” value is reported as “soluble”.
With “MSRPPPPRAASGAPLRPATVLGTMEMGRRMDASASAASVRAFLERGHSELDTAFMYCDGQSENILGGLGLGLGSGDCTVKIATKANPWEGKSLKPDSIRSQLETSLKRLQCPRVDLFYLHAPDHSTPVEETLCACHQLHQEGKFVELGLSNYASWEVAEICTLCKSNGWILPTVYQGMYNATTRQVEAELLPCLRHFGLRFYAYNPLAGGLLTGKYKYEDKDGKQPVGRFFGNNWAETYRNRFWKEHHFEAIALVEKALQTTYGTNAPRMTSAALRWMYHHSQLQGTRGDAVILGMSSLEQLEQNLAATEEGPLEPAVVEAFDQAWNMVAHECPNYFR” the “soluble on expression in E. coli” value was “soluble”.
In the case of “MGMTRNLLAAGLAAVLALPALAAELVMVEQHGCEWCARWNEEIAPIYPKTAEGAFAPLRRVDLRAIPADLETARRVVFTPTFLIVEDGRELARLEGYPGEDFFWPLLEQLLVDHAGFVPKKPGSS”, the “soluble on expression in E. coli” value is reported as “not soluble”.
In the case of “MKKFTCVQDIGDLKSALAESFEIKKDRFKYVELGRNKTLLMIFFNSSLRTRLSTQKAALNLGMNVIVLDINQGAWKLETERGVIMDGDKPEHLLEAIPVMGCYCDIIGVRSFARFENREYDYNEVIINQFIQHSGRPVFSMEAATRHPLQSFADLITIEEYKKTARPKVVMTWAPHPRPLPQAVPNSFAEWMNATDYEFVITHPEGYELDPKFVGNARVEYDQMKAFEGADFIYAKNWAAYTGDNYGQILSTDRNWTVGDRQMAVTNNAYFMHCLPVRRNMIVTDDVIESPQSIVIPEAANREISATVVLKRLLENLPHHHHHH”, the “soluble on expression in E. coli” value is reported as “soluble”.
For “GMDMKTKLQTIIGMFQITAWDETSYFESDNGAKLTQAVITQSYQGVLQGHSEIRYLMSYQDNANATFVGFEHFTGSLGDKKGSFILQHKGLFAAGVASSEFELVERSATGDFVHLVGKGHFVSTENGQANYQITLQDS”, the “soluble on expression in E. coli” value was “soluble”.
